Test results reported in patent US20240309115A1 (MERUS N V, published 2024).
Changes are numbered by the printed parent chain. Values belong to the binder of their own block, whether it stands above or below them.

What was measured:
[1] = target: T1, LAG-3 on PD-1 and LAG-3 expressing Jurkat T cells (effector cells of the PD-1/LAG-3 reporter assay) (UniProt P18627 23-525); assay: cell-based or functional assay
T1 sequence (looked up): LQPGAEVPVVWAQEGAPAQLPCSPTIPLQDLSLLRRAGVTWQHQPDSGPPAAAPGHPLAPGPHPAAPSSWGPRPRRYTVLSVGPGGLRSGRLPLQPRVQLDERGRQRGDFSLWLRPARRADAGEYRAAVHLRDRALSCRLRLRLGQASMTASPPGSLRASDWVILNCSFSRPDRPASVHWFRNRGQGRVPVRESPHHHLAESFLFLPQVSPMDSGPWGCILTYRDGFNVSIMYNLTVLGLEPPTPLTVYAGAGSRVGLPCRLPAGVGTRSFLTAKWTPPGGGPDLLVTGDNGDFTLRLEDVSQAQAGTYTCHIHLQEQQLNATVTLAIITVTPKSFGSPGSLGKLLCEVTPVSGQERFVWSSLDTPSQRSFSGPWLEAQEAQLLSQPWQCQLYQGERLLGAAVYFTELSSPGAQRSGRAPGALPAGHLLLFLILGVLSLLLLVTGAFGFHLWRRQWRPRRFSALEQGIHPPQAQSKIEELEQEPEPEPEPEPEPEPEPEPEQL

[2] = target: T2, PD-L1 on PD-L1 expressing Raji cells (target cells of the PD-1/LAG-3 reporter assay) (UniProt Q9NZQ7 19-290, limits assumed); assay: cell-based or functional assay
T2 sequence (Q9NZQ7 19-290 limits assumed): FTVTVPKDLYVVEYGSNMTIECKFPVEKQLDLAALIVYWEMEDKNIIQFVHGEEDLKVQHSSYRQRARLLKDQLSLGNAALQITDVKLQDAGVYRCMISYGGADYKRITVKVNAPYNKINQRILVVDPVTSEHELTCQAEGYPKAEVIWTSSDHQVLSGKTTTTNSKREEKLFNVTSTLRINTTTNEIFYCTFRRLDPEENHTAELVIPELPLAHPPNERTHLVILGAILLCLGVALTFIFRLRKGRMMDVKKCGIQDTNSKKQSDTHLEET

[3] = target: T3, human LAG-3 (293FF cell line stably transfected with human LAG-3) (human, UniProt P18627 23-525); assay: FACS on 293FF cells expressing human LAG-3
T3 construct: whole, on cells; also called huLAG-3; 293FF-huLAG-3
T3 sequence (looked up): T1 sequence (looked up)

[4] = target: T4, human PD-L1 (CHO-K1 cell line stably transfected with human PD-L1) (human, UniProt Q9NZQ7 19-290); assay: FACS on CHO-K1 cells expressing human PD-L1
T4 construct: whole, on cells; also called huPD-L1; CHO-K1-huPD-L1
T4 sequence (Q9NZQ7 19-290): as the sequence (Q9NZQ7 19-290 limits assumed) above

[5] = target: T5, rhesus LAG-3 (293FF cell line stably transfected with rhesus LAG-3) (rhesus, UniProt A0A5F8A874 23-533); assay: FACS on 293FF cells stably expressing rhesus LAG-3, goat-anti-human PE secondary, MFI
T5 construct: whole, on cells; also called reLAG-3; 293FF-reLAG-3
T5 sequence: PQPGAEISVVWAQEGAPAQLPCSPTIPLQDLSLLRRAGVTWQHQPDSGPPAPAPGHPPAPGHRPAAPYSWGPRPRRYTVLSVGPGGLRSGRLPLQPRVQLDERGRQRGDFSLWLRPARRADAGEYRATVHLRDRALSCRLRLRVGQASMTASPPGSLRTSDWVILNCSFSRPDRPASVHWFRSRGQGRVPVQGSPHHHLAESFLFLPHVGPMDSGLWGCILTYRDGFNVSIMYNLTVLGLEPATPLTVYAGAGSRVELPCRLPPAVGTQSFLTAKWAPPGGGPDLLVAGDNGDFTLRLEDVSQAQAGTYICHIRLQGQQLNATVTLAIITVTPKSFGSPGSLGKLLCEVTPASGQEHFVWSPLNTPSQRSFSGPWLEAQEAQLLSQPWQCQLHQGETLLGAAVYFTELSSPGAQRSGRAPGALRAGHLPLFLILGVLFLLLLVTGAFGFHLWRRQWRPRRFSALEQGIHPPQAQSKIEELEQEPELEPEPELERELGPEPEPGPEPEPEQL

[6] = target: T6, rhesus PD-L1 (CHO-K1 cell line stably transfected with rhesus PD-L1) (rhesus, UniProt F6VEW6 19-290); assay: FACS on CHO-K1 cells stably expressing rhesus PD-L1, goat-anti-human PE secondary, MFI
T6 construct: whole, on cells

[7] = target: T1, LAG-3 on PD-1 and LAG-3 expressing …; assay: cell-based or functional assay; remark: listed apart in the source
[8] = target: T2, PD-L1 on PD-L1 expressing Raji cells …; assay: cell-based or functional assay; remark: listed apart in the source
[9] = target: T3, human LAG-3 (293FF cell line stably …); assay: FACS on 293FF-huLAG-3 cells
[10] = target: T5, rhesus LAG-3 (293FF cell line stably …); assay: FACS on 293FF-reLAG-3 cells
[11] = target: T4, human PD-L1 (CHO-K1 cell line stably …); assay: FACS on CHO-K1-huPD-L1 cells
[12] = target: T7, cynomolgus monkey LAG-3-His (Sino Biological, Cat nr. 90841-C08H) (cynomolgus monkey); assay: SPR, BIAcore T200, antibody captured by anti-huIgG Fcγ on a CM5 chip, antigen in solution, 1:1 model
T7 construct: also called cynomolgus LAG-3

B1: SEQ ID NO: 15×SEQ ID NO: 23 bispecific antibody (bispecific antibody)
heavy (part 1 of 2) 1: QVQLVQSGAEVKKPGASVKVSCKASGYTFTSYGISWVRQAPGQGLEWMGWISAYSGNTNYAQKLQGRVTMTTDTSTSTAYMELRSLRSDDTAVYYCARDGSGWDDFDYWGQGTLVTVSSASTKGPSVFPLAPSSKSTSGGTAALGCLVKDYFPEPVTVSWNSGALTSGVHTFPAVLQSSGLYSLSSVVTVPSSSLGTQTYICNVNHKPSNTKVDKRV
heavy (part 2 of 2) 1: not shown
heavy (part 1 of 2) 2: not shown
heavy (part 2 of 2) 2: not shown
light: not shown
notes: Fc-silenced IgG1, monovalent for LAG-3 and for PD-L1; also called PB59; not shown: IgG1 hinge
AUC compared to control, PD-1/LAG-3 reporter assay (luciferase) [1]: 71 relative to AUC of positive control
AUC compared to control, PD-1/LAG-3 reporter assay (luciferase) [2]: 71 relative to AUC of positive control
EC50 [3]: 113 nM
EC50 [4]: 2.41 nM

B3: SEQ ID NO: 1×SEQ ID NO: 23 bispecific antibody (bispecific antibody)
heavy (part 1 of 2) 1: QVQLQESGPGLVRPSETLSLTCTVSGGSISSYSWSWIRQPPGKGLEWIGYIDYSGSTNYNPSLKSRVTISVDTSKTQFSLKLSSVSAADTAVYYCAKDLLYKWNYVEGFDIWGQGTTVTVSSASTKGPSVFPLAPSSKSTSGGTAALGCLVKDYFPEPVTVSWNSGALTSGVHTFPAVLQSSGLYSLSSVVTVPSSSLGTQTYICNVNHKPSNTKVDKRV
heavy (part 2 of 2) 1: not shown
heavy (part 1 of 2) 2: not shown
heavy (part 2 of 2) 2: not shown
light: not shown
notes: Fc-silenced IgG1, monovalent for LAG-3 and for PD-L1; also called PB3; not shown: IgG1 hinge
AUC compared to control, PD-1/LAG-3 reporter assay (luciferase) [1]: 54.8 relative to AUC of positive control
AUC compared to control, PD-1/LAG-3 reporter assay (luciferase) [2]: 54.8 relative to AUC of positive control
EC50 [3]: 52.1 nM
EC50 [4]: 0.74 nM
EC50 (read off the curve) [6]: ~0.05 µg/mL

B4: bivalent monospecific parental LAG-3 antibody SEQ ID NO: 1 (antibody, IgG1)
heavy (part 1 of 2): B3 heavy (part 1 of 2) 1
heavy (part 2 of 2): not shown
light: not shown
notes: IgG1; not shown: IgG1 hinge
EC50 [3]: 0.54 nM

B5: SEQ ID NO: 5×SEQ ID NO: 23 bispecific antibody (bispecific antibody)
heavy (part 1 of 2) 1: QVQLQESGPGLVKPSETLSLTCTVSDDSISDYYWSWIRQPPGKGLEWIGYIYYSGNTKYNPSLKNRVTISVDTSKSQFSLKLTSVTAADTAVYYCARIPLTGEFDYWAQGTLVTVSSASTKGPSVFPLAPSSKSTSGGTAALGCLVKDYFPEPVTVSWNSGALTSGVHTFPAVLQSSGLYSLSSVVTVPSSSLGTQTYICNVNHKPSNTKVDKRV
heavy (part 2 of 2) 1: not shown
heavy (part 1 of 2) 2: not shown
heavy (part 2 of 2) 2: not shown
light: not shown
notes: Fc-silenced IgG1, monovalent for LAG-3 and for PD-L1; also called PB19; not shown: IgG1 hinge
AUC compared to control, PD-1/LAG-3 reporter assay (luciferase) [1]: 83.9 relative to AUC of positive control
AUC compared to control, PD-1/LAG-3 reporter assay (luciferase) [2]: 83.9 relative to AUC of positive control
EC50 [3]: 8.64 nM
EC50 [4]: 1.21 nM

B7: SEQ ID NO: 52×SEQ ID NO: 20 bispecific antibody (bispecific antibody)
heavy (part 1 of 2) 1: B5 heavy (part 1 of 2) 1 with E103D, Y106F
heavy (part 2 of 2) 1: not shown
heavy (part 1 of 2) 2: not shown
heavy (part 2 of 2) 2: not shown
light: not shown
notes: IgG1; also called PB90; not shown: IgG1 hinge
AUC (% of control), PD-1/LAG-3 reporter assay [7]: 96.9 % of control
EC50, PD-1/LAG-3 reporter assay [7]: 1.15 µg/mL
AUC (% of control), PD-1/LAG-3 reporter assay [8]: 96.9 % of control
EC50, PD-1/LAG-3 reporter assay [8]: 1.15 µg/mL
EC50 [9]: 1.25 µg/mL
EC50 [10]: 3.22 µg/mL
EC50 [11]: 0.009 µg/mL

B8: SEQ ID NO: 16×SEQ ID NO: 23 bispecific antibody (bispecific antibody)
heavy (part 1 of 2) 1: QVQLVQSGAEVKKPGASVKVSCKASGYTFTSYGISWVRQAPGQGLEWMGWISAYSGNTNYAQKLQGRVTMTTDTSTSTAYMELRSLRSDDTAVYYCARGSILAAQMWGDIWGQGTLVTVSSASTKGPSVFPLAPSSKSTSGGTAALGCLVKDYFPEPVTVSWNSGALTSGVHTFPAVLQSSGLYSLSSVVTVPSSSLGTQTYICNVNHKPSNTKVDKRV
heavy (part 2 of 2) 1: not shown
heavy (part 1 of 2) 2: not shown
heavy (part 2 of 2) 2: not shown
light: not shown
notes: Fc-silenced IgG1, monovalent for LAG-3 and for PD-L1; also called PB63; not shown: IgG1 hinge
AUC compared to control, PD-1/LAG-3 reporter assay (luciferase) [1]: 58.3 relative to AUC of positive control
AUC compared to control, PD-1/LAG-3 reporter assay (luciferase) [2]: 58.3 relative to AUC of positive control
EC50 [3]: 24.1 nM
EC50 [4]: 1.01 nM

The remaining lines, values ahead:

EC50 [3]: 0.94 nM
EC50 (read off the curve) [5]: ~0.6 µg/mL
B2: bivalent monospecific parental LAG-3 antibody SEQ ID NO: 15 (antibody, IgG1)
heavy (part 1 of 2): B1 heavy (part 1 of 2) 1
heavy (part 2 of 2): not shown
light: not shown
notes: IgG1; not shown: IgG1 hinge

EC50 [3]: 1.88 nM
B6: bivalent monospecific parental LAG-3 antibody SEQ ID NO: 5 (antibody, IgG1)
heavy (part 1 of 2): B5 heavy (part 1 of 2) 1
heavy (part 2 of 2): not shown
light: not shown
notes: IgG1; not shown: IgG1 hinge

EC50 [3]: 13.3 nM
B9: bivalent monospecific parental LAG-3 antibody SEQ ID NO: 16 (antibody, IgG1)
heavy (part 1 of 2): B8 heavy (part 1 of 2) 1
heavy (part 2 of 2): not shown
light: not shown
notes: IgG1; not shown: IgG1 hinge

Kd [12]: 11.5 nM
B10: relatlimab analog (antibody, V domains shown)
VH: QVQLQQWGAGLLKPSETLSLTCAVYGGSFSDYYWNWIRQPPGKGLEWIGEINHRGSTNSNPSLKSRVTLSLDTSKNQFSLKLRSVTAADTAVYYCAFGYSDYEYNWFDPWGQGTLVTVSS
VL: EIVLTQSPATLSLSPGERATLSCRASQSISSYLAWYQQKPGQAPRLLIYDASNRATGIPARFSGSGSGTDFTLTISSLEPEDFAVYYCQQRSNWPLTFGQGTNLEIK
notes: also called analog of anti-LAG-3 antibody relatlimab
